Test results published in patent US20220259328A1 (Kyowa Kirin, published 2022).

Assays:
[1] = target: T1, human CD40-GST (human, UniProt P25942 21-193); assay: phage ELISA on immobilized human CD40-GST, anti-M13-HRP detection
T1 construct: also called human CD40-GST protein; not shown: GST region of the N5 vector
Method: (§1) In the ELISA, MAXISORP (manufactured by NUNC, Inc.) in which the human or monkey CD40-GST in Example 1 was immobilized on each well and a portion to which the human or monkey CD40-GST is not bound was blocked using SuperBlock Blockig Buffer (manufactured by Thermo Fisher. Inc.) was used. To each well, each phage clone was added and reacted at room temperature for 30 minutes, and thereafter, each well was washed 3 times with PBS-T.

[2] = target: T2, monkey CD40-GST (monkey, UniProt P25942 21-193 (human entry)); assay: phage ELISA on immobilized monkey CD40-GST, anti-M13-HRP detection
T2 construct: also called monkey CD40-GST protein; not shown: GST region of the N5 vector
T2 chain: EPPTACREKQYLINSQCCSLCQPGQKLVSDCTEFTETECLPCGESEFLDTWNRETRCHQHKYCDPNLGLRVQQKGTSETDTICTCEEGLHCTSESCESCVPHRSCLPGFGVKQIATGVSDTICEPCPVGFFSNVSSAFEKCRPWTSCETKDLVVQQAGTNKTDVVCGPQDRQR
Method: as §1

B1: R1090S55A (monoclonal phage clone displaying scFv) (scFv, V domains shown)
VH: EVQLVQSGAEVKKPGESLKISCKGSGYSFIIYWIGWVRQMPGKGLEWMGIIYPNDADTRYSPSFQGQVTISADKSISTAYLQWSSLKASDTAMYYCVRLGTRDWFDPWGQGTLVTVSS
VL: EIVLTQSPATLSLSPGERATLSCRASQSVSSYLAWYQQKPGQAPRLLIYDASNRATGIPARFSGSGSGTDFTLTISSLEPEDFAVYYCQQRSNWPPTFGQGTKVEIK
notes: also called anti-CD40 antibody R1090S55A
binding result [1]: binds | binding result [2]: binds
